The results in this text go back to patent US20200148732A1 (UNIVERSITY OF COPENHAGEN, published 2020).

This experiment concerns the target T1, GFP-TONSL D604A (Homo sapiens, UniProt Q96HA7 1-1378).
T1 construct: also called TONSL D604A / GFP; not shown: N-terminal GFP tag
T1 sequence: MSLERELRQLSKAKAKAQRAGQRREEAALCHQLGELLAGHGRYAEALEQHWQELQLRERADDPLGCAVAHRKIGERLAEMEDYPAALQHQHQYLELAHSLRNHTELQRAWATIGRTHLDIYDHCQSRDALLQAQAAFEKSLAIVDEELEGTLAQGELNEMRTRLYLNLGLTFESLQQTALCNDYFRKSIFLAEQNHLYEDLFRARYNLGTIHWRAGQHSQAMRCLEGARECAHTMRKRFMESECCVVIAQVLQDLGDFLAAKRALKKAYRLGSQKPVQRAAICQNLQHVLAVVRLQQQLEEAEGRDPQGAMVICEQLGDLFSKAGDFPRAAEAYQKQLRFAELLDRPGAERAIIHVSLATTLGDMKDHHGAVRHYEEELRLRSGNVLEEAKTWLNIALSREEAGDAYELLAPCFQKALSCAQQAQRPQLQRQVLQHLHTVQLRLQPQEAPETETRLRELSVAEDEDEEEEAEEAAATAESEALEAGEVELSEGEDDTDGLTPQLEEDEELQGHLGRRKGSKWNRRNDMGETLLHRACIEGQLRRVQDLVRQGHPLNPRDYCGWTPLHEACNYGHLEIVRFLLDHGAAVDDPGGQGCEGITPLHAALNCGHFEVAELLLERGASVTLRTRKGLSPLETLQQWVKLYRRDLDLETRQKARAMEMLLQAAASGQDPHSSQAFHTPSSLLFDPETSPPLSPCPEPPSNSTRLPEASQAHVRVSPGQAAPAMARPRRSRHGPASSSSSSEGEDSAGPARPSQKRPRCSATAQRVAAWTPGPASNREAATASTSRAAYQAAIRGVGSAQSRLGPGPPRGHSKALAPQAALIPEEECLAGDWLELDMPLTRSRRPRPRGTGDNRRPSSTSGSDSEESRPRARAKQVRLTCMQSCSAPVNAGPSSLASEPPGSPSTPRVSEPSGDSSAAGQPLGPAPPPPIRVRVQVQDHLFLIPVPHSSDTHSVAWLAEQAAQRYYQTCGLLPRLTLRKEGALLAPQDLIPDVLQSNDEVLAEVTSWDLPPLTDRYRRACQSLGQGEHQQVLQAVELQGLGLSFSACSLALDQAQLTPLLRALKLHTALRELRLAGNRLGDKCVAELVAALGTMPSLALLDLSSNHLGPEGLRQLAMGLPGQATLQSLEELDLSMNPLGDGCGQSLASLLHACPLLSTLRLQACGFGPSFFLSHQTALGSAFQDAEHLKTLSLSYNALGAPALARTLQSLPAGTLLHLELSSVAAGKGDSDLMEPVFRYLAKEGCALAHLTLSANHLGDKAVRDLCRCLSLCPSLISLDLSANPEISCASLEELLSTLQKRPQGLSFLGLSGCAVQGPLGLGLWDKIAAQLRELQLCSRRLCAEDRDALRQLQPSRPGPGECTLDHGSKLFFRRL
Nature of the experiment: GFP immunoprecipitation of GFP-TONSL from transfected HeLa S3 cells, western blot (co-IP; association may be indirect).

B1: MMS22L (endogenous, in cell extracts) (other, UniProt Q6ZRQ5 1-1243, looked up)
chain: MENCSAASTFLTDSLELELGTEWCKPPYFSCAVDNRGGGKHFSGESYLCSGALKRLILNLDPLPTNFEEDTLEIFGIQWVTETALVNSSRELFHLFRQQLYNLETLLQSSCDFGKVSTLHCKADNIRQQCVLFLHYVKVFIFRYLKVQNAESHVPVHPYEALEAQLPSVLIDELHGLLLYIGHLSELPSVNIGAFVNQNQIKLFPPSWHLLHLHLDIHWLVLEILYMLGEKLKQVVYGHQFMNLASDNLTNISLFEEHCETLLCDLISLSLNRYDKVRSSESLMSDQCPCLCIKELWVLLIHLLDHRSKWFVSESFWNWLNKLLKTLLEKSSDRRRSSMPVIQSRDPLGFSWWIITHVASFYKFDRHGVPDEMRKVESNWNFVEELLKKSISVQGVILEEQLRMYLHCCLTLCDFWEPNIAIVTILWEYYSKNLNSSFSISWLPFKGLANTMKSPLSMLEMVKTCCCDKQDQELYKSSSSYTIFLCILAKVVKKAMKSNGPHPWKQVKGRIYSKFHQKRMEELTEVGLQNFFSLFLLLAAVAEVEDVASHVLDLLNFLKPAFVTSQRALIWKGHMAFLLMYAQKNLDIGVLAEKFSCAFREKAKEFLVSKNEEMVQRQTIWTLLSIYIDGVQEVFETSYCLYPSHEKLLNDGFSMLLRACRESELRTVLSFLQAVLARIRSMHQQLCQELQRDNVDLFVQSSLSAKERHLAAVASALWRHFFSFLKSQRMSQVVPFSQLADAAADFTLLAMDMPSTAPSDFQPQPVISIIQLFGWDDIICPQVVARYLSHVLQNSTLCEALSHSGYVSFQALTVRSWIRCVLQMYIKNLSGPDDLLIDKNLEEAVEKEYMKQLVKLTRLLFNLSEVKSIFSKAQVEYLSISEDPKKALVRFFEAVGVTYGNVQTLSDKSAMVTKSLEYLGEVLKYIKPYLGKKVFSAGLQLTYGMMGILVKSWAQIFATSKAQKLLFRIIDCLLLPHAVLQQEKELPAPMLSAIQKSLPLYLQGMCIVCCQSQNPNAYLNQLLGNVIEQYIGRFLPASPYVSDLGQHPVLLALRNTATIPPISSLKKCIVQVIRKSYLEYKGSSPPPRLASILAFILQLFKETNTDIYEVELLLPGILKCLVLVSEPQVKRLATENLQYMVKACQVGSEEEPSSQLTSVFRQFIQDYGMRYYYQVYSILETVATLDQQVVIHLISTLTQSLKDSEQKWGLGRNIAQREAYSKLLSHLGQMGQDEMQRLENDNT
On to B1, for which the binding result is on record as “binds”.
